In patent US20250361308A1 (NEUROGENE, published 2025):
Where a chain is given by its changes, count along the chain named.

B1: Neo-2/15_H11A (designed binder)
chain: PKKKIQLHAEAALYDALMILNIVKTNSPPAEEKLEDYAFNFELILEEIARLFESGDQKDEAEKAKRMKEWMKRIKTTASEDEQEEMANAIITILQSWIFS
B2: Neo-2/15_H8A (designed binder)
chain: B1 chain with H8A, A11H
B3: Neo-2/15_Y14A (designed binder)
chain: B1 chain with A11H, Y14A
B4: C terminal anti-CD25 full-length Ab fusion with Neo-2/15_D15S_Q95E (TRA comprising SEQ ID NO: 69 and 70) (other)
heavy: QVQLVQSGAEVKKPGSSVKVSCKASGYTFTSYRMHWVRQAPGQGLEWIGYINPSTGYTEYNQKFKDKATITADESTNTAYMELSSLRSEDTAVYYCARGGGVFDYWGQGTLVTVSSASTKGPSVFPLAPSSKSTSGGTAALGCLVKDYFPEPVTVSWNSGALTSGVHTFPAVLQSSGLYSLSSVVTVPSSSLGTQTYICNVNHKPSNTKVDKKVEPKSCDKTHTCPPCPAPEAAGAPSVFLFPPKPKDTLMISRTPEVTCVVVDVSHEDPEVKFNWYVDGVEVHNAKTKPREEQYNSTYRVVSVLTVLHQDWLNGKEYKCKVSNKALPAPIEKTISKAKGQPREPQVYTLPPSREEMTKNQVSLTCLVKGFYPSDIAVEWESNGQPENNYKTTPPVLDSDGSFFLYSKLTVDKSRWQQGNVFSCSVMHEALHNHYTQKSLSLSPGKGGGGSGGGGSGGGGSPKKKIQLHAEHALYSALMILNIVKTNSPPAEEKLEDYAFNFELILEEIARLFESGDQKDEAEKAKRMKEWMKRIKTTASEDEQEEMANAIITILESWIFS
light: DIQMTQSPSTLSASVGDRVTITCSASSSISYMHWYQQKPGKAPKLLIYTTSNLASGVPARFSGSGSGTEFTLTISSLQPDDFATYYCHQRSTYPLTFGQGTKVEVKRTVAAPSVFIFPPSDEQLKSGTASVVCLLNNFYPREAKVQWKVDNALQSGNSQESVTEQDSKDSTYSLSSTLTLSKADYEKHKVYACEVTHQGLSSPVTKSFNRGEC
notes: also called distal fused TRA
B5: N terminal anti-CD25 full-length Ab fusion with Neo-2/15_D15S_Q95E (other)
heavy: GSPKKKIQLHAEHALYSALMILNIVKTNSPPAEEKLEDYAFNFELILEEIARLFESGDQKDEAEKAKRMKEWMKRIKTTASEDEQEEMANAIITILESWIFSGGGGSGGGGSGGGGSQVQLVQSGAEVKKPGSSVKVSCKASGYTFTSYRMHWVRQAPGQGLEWIGYINPSTGYTEYNQKFKDKATITADESTNTAYMELSSLRSEDTAVYYCARGGGVFDYWGQGTLVTVSSASTKGPSVFPLAPSSKSTSGGTAALGCLVKDYFPEPVTVSWNSGALTSGVHTFPAVLQSSGLYSLSSVVTVPSSSLGTQTYICNVNHKPSNTKVDKKVEPKSCDKTHTCPPCPAPEAAGAPSVFLFPPKPKDTLMISRTPEVTCVVVDVSHEDPEVKFNWYVDGVEVHNAKTKPREEQYNSTYRVVSVLTVLHQDWLNGKEYKCKVSNKALPAPIEKTISKAKGQPREPQVYTLPPSREEMTKNQVSLTCLVKGFYPSDIAVEWESNGQPENNYKTTPPVLDSDGSFFLYSKLTVDKSRWQQGNVFSCSVMHEALHNHYTQKSLSLSPGK
light: B4 light
B6: N terminal anti-CD25 full-length Ab fusion with Neo-2/15_N40S_I44S_Q95E (TRA comprising SEQ ID NO: 74 and 70) (other)
heavy: B5 heavy with S17D, N42S, I46S
light: B4 light
notes: also called proximal fused TRA
B7: Neo-2/15_D15A (designed binder)
chain: B1 chain with A11H, D15A
B8: Neo-2/15_N40A (designed binder)
chain: B1 chain with A11H, N40A
B9: Neo-2/15_Q95A (designed binder)
chain: B1 chain with A11H, Q95A
B10: Neo-2/15_I44A (designed binder)
chain: B1 chain with A11H, I44A

These binders were tested against T1, Human IL-2 R beta/CD122 Protein, Fc Tag (ILB-H5253) (human, UniProt P14784 27-239) (assay: Octet BLI; IL-2Rβ-Fc on anti-human Fc sensors, Neo-2/15 variant as analyte, 1:1 steady-state model).
T1 construct: Bought protein, captured on anti-human Fc sensors; also called huIL2Rβ; IL-2Rβ; not shown: Fc tag of the bought reagent
T1 sequence (looked up): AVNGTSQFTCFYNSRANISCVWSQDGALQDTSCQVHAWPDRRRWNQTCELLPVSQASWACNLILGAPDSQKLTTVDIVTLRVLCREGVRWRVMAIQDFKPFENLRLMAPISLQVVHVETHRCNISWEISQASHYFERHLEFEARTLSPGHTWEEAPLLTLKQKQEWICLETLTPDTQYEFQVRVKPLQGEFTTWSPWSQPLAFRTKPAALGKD
B1 showed a Kd of 3.3 nM.
For B2, the Kd was 1.4 nM.
B3 showed a Kd of 0.7 nM.

The binders below were run against T2, huIL2Rβγ: Human IL-2 R gamma/CD132 Protein, Fc Tag (ILG-H5256) with Human IL-2 R beta/CD122 Protein, His Tag … (human, UniProt P31785 23-254; P14784 27-239) (assay: Octet BLI; IL-2Rγ-Fc on anti-human Fc sensors with IL-2Rβ-His in solution, 1:1 steady-state model).
T2 construct: IL-2Rγ-Fc sat on the sensor; IL-2Rβ-His was in solution at a concentration equimolar to or greater than the analyte; also called IL-2RBG; not shown: Fc tag of the bought reagent; His tag of the bought reagent
T2 sequence (looked up) 1: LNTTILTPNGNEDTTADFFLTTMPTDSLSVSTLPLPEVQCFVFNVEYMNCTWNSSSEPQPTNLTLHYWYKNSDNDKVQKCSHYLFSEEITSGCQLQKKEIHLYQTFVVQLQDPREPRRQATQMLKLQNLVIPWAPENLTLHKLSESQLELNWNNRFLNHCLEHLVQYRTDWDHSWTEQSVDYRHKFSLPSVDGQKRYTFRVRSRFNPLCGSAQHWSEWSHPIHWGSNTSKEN
T2 sequence (looked up) 2: T1 sequence (looked up)
With B1 the Kd was 15 nM.
For B2, the Kd was 11 nM.
B3 showed a Kd of 10 to 20 nM.

The binders below were run against T3, human CD122 and CD132 expressed on a HEK293 cell line (human, UniProt P14784 27-551; P31785 23-369) (assay: flow cytometry saturation binding on HEK293 cells expressing human CD122 and CD132; apparent KD).
T3 construct: whole, on cells; also called IL-2RBG; IL-2Rβγ on cells
T3 sequence (looked up) 1: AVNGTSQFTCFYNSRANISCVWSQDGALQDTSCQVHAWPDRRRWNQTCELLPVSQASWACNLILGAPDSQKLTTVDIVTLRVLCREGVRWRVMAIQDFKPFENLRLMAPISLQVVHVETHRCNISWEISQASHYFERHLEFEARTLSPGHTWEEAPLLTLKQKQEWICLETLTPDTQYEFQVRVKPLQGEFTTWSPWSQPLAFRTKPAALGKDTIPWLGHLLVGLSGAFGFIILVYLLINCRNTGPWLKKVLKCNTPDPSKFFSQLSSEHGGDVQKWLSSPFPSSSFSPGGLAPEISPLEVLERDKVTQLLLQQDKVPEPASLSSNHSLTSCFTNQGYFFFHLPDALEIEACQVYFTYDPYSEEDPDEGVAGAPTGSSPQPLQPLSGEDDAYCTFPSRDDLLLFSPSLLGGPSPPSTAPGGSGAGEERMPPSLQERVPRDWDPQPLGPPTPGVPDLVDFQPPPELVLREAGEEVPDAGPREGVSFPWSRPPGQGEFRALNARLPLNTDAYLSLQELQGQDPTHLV
T3 sequence (looked up) 2: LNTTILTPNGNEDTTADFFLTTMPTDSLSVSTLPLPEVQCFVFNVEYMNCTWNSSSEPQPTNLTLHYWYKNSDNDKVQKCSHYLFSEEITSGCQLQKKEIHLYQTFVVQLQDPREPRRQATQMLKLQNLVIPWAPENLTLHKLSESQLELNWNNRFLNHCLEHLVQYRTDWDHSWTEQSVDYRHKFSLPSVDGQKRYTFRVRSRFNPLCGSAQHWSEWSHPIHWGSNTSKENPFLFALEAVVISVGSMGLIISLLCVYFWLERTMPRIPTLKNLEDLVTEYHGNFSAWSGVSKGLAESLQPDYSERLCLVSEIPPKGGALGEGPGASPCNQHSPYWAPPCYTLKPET
Description: Saturation binding studies were done using a HEK293 cell line expressing human CD122 and CD132. […] Cells were incubated for 30 minutes on ice, then pelleted and washed twice with cold PBS. […] After a 30-minute incubation on ice, the cells were pelleted and washed twice in cold PBS. […] The apparent dissociation constant (KD) was calculated using GraphPad Prism (GraphPad, San Diego, CA).
B4 was tested, and the Kd was 131 nM.
Binder B5 has a Kd of 82 nM.
In the case of B6, the Kd is reported as 131 nM.

Target: T1, Human IL-2 R beta/CD122 Protein, Fc Tag …
Assay: Octet BLI; IL-2Rβ-Fc on anti-human Fc sensors, Neo-2/15 variant as analyte, 1:1 steady-state model
Remark: another data set of the same source
Description: (§1) Binding data was collected in the Octet RED96 instrument and processed using the integrated Octet software. […] Anti-Human Fc Capture (AHC) sensors were equilibrated for 90s in 1× Cytiva HBS-EP+ Buffer 10 binding buffer. Sensors were loaded with receptor by mixing with wells containing 0.5 ug/ml aforementioned receptors until a threshold response reached 1.0 nm. Sensors were then baselined in binding buffer for 90s. After baseline measurement, the association kinetics (kon) were monitored by dipping the biosensors in wells containing analyte for 400s. […] Dissociation kinetics (koff) were monitored by dipping the biosensors in separate wells of binding buffer for 800s. The dissociation constant (Kd) was calculated using a 1:1 steady-state binding model with the Octet software.
Binder B7 has a Kd of 140 nM.
B8 showed a Kd of 60 nM.
Binder B9 has a Kd of 3 nM.
Binder B10 has a Kd of 84 nM.

Target: T2, huIL2Rβγ: Human IL-2 R gamma/CD132 …
Assay: Octet BLI; IL-2Rγ-Fc on anti-human Fc sensors with IL-2Rβ-His in solution, 1:1 steady-state model
Remark: another data set of the same source
Description: as §1
B7 gave a Kd of 230 nM.
Binder B8 has a Kd of 44 nM.
Binder B9 has a Kd of 190 nM.
B10 was tested, and the Kd was 58 nM.
